From paper doi:10.1101/2021.04.16.440108 (bioRxiv, 2021)

B1: IκBα (natural protein, UniProt P25963 1-317, looked up)
chain: MFQAAERPQEWAMEGPRDGLKKERLLDDRHDSGLDSMKDEEYEQMVKELQEIRLEPQEVPRGSEPWKQQLTEDGDSFLHLAIIHEEKALTMEVIRQVKGDLAFLNFQNNLQQTPLHLAVITNQPEIAEALLGAGCDPELRDFRGNTPLHLACEQGCLASVGVLTQSCTTPHLHSILKATNYNGHTCLHLASIHGYLGIVELLVSLGADVNAQEPCNGRTALHLAVDLQNPDLVSLLLKCGADVNRVTYQGYSPYQLTWGRPSTRIQQQLGQLTLENLQMLPESEDEESYDTESEFTEFTEDELPYDDCVFGGQRLTL
B2: Transgelin 3 (TAGLN3) (natural protein, human, UniProt Q9UI15 1-199, looked up)
chain: MANRGPSYGLSREVQEKIEQKYDADLENKLVDWIILQCAEDIEHPPPGRAHFQKWLMDGTVLCKLINSLYPPGQEPIPKISESKMAFKQMEQISQFLKAAETYGVRTTDIFQTVDLWEGKDMAAVQRTLMALGSVAVTKDDGCYRGEPSWFHRKAQQNRRGFSEEQLRQGQNVIGLQMGSNKGASQAGMTGYGMPRQIM

Tests used:
Transgelin 3 (TAGLN3) = biological target: B2; test: nanoDSF
IκBα = biological target: B1; test: nanoDSF

| Kd (IκBα) [µM] | Binder | Tm of TAGLN3 with 6-fold excess of IκBα (free TAGLN3: 56.8°C) (Transgelin 3 (TAGLN3)) [°C] |
| --- | --- | --- |
| – | B1 | 61 |
| 10 | B2 | – |
